Measured values as given in publication PMC10130750, “The motor domain of the kinesin Kip2 promotes microtubule polymerization at microtubule tips” (The Journal of Cell Biology, 2023).
Values belong to the binder of their own block, whether it stands above or below them.

B3: coiled-coil domain of Bik1 (Bik1-CC, residues 182–396) (domain or fragment, S. cerevisiae, UniProt P11709 182-396, looked up)
chain: DNGHMNDLNSSEVTIELREAQLTIEKLQRKQLHYKRLLDDQRMVLEEVQPTFDRYEATIQEREKEIDHLKQQLELERRQQAKQKQFFDAENEQLLAVVSQLHEEIKENEERNLSHNQPTGANEDVELLKKQLEQLRNIEDQFELHKTKWAKEREQLKMHNDSLSKEYQNLSKELFLTKPQDSSSEEVASLTKKLEEANEKIKQLEQAQAQTAVES
notes: Bik1 coiled-coil domain, S. cerevisiae CLIP-170 ortholog, residues 182–396; Dimer by SEC-MALS (51 kD); source: recombinantly expressed and purified (E. coli BL21 (DE3), IMAC, SEC)

Legend:
[1] = target: tubulin (free αβ-tubulin heterodimer) (not stated (bovine brain tubulin used for pelleting, pig brain tubulin for TIRF)) (UniProt Q6B856)
[2] = target: the molecule itself; experiment: SEC-MALS; 25°C; 20 mM Tris-HCl pH 7.5, 150 mM NaCl, 1 mM DTT; 4–8 mg/ml of each protein applied, single proteins and mixtures (Bik1-CC, Kip2-NMD, Kip2-NMD-ΔT)
[3] = target: B3; experiment: as above; conditions: both partners purified
[4] = target: T1, tubulin (free αβ-tubulin heterodimer) ( (bovine brain tubulin used …, UniProt Q6B856 1-445)); experiment: SEC-MALS; 25°C; 20 mM Hepes pH 7.4, 200 mM NaCl, 1 mM DTT; 4–8 mg/ml applied; MBP-Kip2(71-560)-mCherry or its P1^− mutant alone and mixed with tubulin; conditions: both partners purified
[5] = target: the molecule itself; experiment: as above
[6] = target: T1, tubulin (free αβ-tubulin heterodimer); experiment: SEC-MALS; equimolar mixture of tubulin and Kip2-MD in its apo state; 25°C; conditions: both partners purified

tubulin (free αβ-tubulin heterodimer) (not stated (bovine brain tubulin used for pelleting, pig brain tubulin for TIRF)), sequence (Q6B856 whole entry, looked up, one chain of several): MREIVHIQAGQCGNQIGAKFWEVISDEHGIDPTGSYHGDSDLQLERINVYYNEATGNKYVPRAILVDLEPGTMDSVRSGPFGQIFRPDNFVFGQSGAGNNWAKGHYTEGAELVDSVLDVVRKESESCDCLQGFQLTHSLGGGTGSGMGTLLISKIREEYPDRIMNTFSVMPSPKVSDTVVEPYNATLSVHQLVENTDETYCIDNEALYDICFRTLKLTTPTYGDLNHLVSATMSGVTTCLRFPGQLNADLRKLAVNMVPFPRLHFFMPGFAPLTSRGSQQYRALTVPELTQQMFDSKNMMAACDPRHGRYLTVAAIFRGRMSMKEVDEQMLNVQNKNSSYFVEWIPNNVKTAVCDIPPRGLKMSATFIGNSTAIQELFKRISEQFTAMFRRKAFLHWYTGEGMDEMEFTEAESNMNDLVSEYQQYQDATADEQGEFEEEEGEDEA

Binder: B3
stoichiometry N [2]: 2

B5: Kip2-NMD-ΔT (truncated non-motor domain of Kip2, residues 504–645) (domain or fragment, S. cerevisiae, UniProt P28743 504-645, looked up)
chain: SNGNNDGDKDRTIELLRRQLEEQRRMISELKNRSNIGEPLTKSSNESTYKDIKATGNDGDPNLALMRAENRVLKYKLENCEKLLDKDVVDLQDSEIMEIVEMLPFEVGTLLETKFQGLESQIRQYRKYTQKLEDKIMALEKS
notes: Kip2 non-motor domain lacking the C-terminal tail, S. cerevisiae, residues 504–645; Dimer by SEC-MALS (34 kD); also called Kip2-NMD-∆T; source: E. coli BL21 (DE3), purified (IMAC, SEC); not shown: His6, N-terminal, cleaved
stoichiometry N [2]: 2

B7: MBP-Kip2(71-560)-P1^−-mCherry (domain or fragment, S. cerevisiae, UniProt P28743 71-560, looked up)
chain: KSDPFLHPGRIRIRRSDSINNNSRKNDTYTGSITVTIRPKPRSVGTSRDHVGLKSPRYSQPRSNSHHGSNTFVRDPWFITNDKTIVHEEIGEFKFDHVFASHCTNLEVYERTSKPMIDKLLMGFNATIFAYGMTGSGKTFTMSGNEQELGLIPLSVSYLFTNIMEQSMNGDKKFDVIISYLEIYNERIYDLLESGLEESGSRISTPSRLYMSKSNSNGLGVELAIADDSQYGVKVIGLTERRCESSEELLRWIAVGDKSRKIGETDYNARSSRSHAIVLIRLTSTNVKNGTSRSSTLSLCDLAGSERATGQQERRKEGSFINKSLLALGTVISKLSADKMNSVGSNIPSPSASGSSSSSGNATNNGTSPSNHIPYRDSKLTRLLQPALSGDSIVTTICTVDTRNDAAAETMNTLRFASRAKNVALHVSKKSIISNGNNDGDKDRTIELLRRQLEEQRRMISELKNRSNIGEPLTKSSNESTYKDIKATGN
notes: Kip2 motor domain with a first helix of the coiled coil, S. cerevisiae, residues 71–560, patch 1 (Lys294, Arg296) substituted with alanines; Mixed monomers and dimers by SEC-MALS (192 kD); also called MBP-Kip2-MD-P1^−-mCherry; MBP-Kip2-MD-P1; not shown: MBP, N-terminal, kept; mCherry, C-terminal, kept
stoichiometry N [5]: 2

Continued, in another order:

average speed of microtubule growth in dynamic microtubule assay (porcine tubulin), 2 nM Kip2-WT, fold increase over no addition [1]: > 13 fold | frequency of catastrophe in dynamic microtubule assay (porcine tubulin), 2 nM Kip2-WT, fold reduction against no addition [1]: 19 fold | length of freshly polymerized microtubules in dynamic microtubule assay (7 µM porcine tubulin, ATP), 2 nM Kip2-WT, fold over no addition [1]: 5 fold
B1: MBP-Kip2(1-560)-RFP (domain or fragment)
chain: MIQKMSPSLRRPSTRSSSGSSNIPQSPSVRSTSSFSNLTRNSIRSTSNSGSQSISASSTRSNSPLRSVSAKSDPFLHPGRIRIRRSDSINNNSRKNDTYTGSITVTIRPKPRSVGTSRDHVGLKSPRYSQPRSNSHHGSNTFVRDPWFITNDKTIVHEEIGEFKFDHVFASHCTNLEVYERTSKPMIDKLLMGFNATIFAYGMTGSGKTFTMSGNEQELGLIPLSVSYLFTNIMEQSMNGDKKFDVIISYLEIYNERIYDLLESGLEESGSRISTPSRLYMSKSNSNGLGVELKIRDDSQYGVKVIGLTERRCESSEELLRWIAVGDKSRKIGETDYNARSSRSHAIVLIRLTSTNVKNGTSRSSTLSLCDLAGSERATGQQERRKEGSFINKSLLALGTVISKLSADKMNSVGSNIPSPSASGSSSSSGNATNNGTSPSNHIPYRDSKLTRLLQPALSGDSIVTTICTVDTRNDAAAETMNTLRFASRAKNVALHVSKKSIISNGNNDGDKDRTIELLRRQLEEQRRMISELKNRSNIGEPLTKSSNESTYKDIKATGN

average growth speed of microtubules in dynamic microtubule assay (porcine tubulin), 2, 4 and 8 nM Kip2-P1^− (no speed-up at 2 nM), fold over no addition [1]: 2.9 fold | effect on catastrophe frequency in dynamic microtubule assay (porcine tubulin), 2 nM Kip2-P1^−, against the wild-type protein [1]: 10 fold
B2: MBP-Kip2(1-560)-P1^−-RFP (domain or fragment)
chain: MIQKMSPSLRRPSTRSSSGSSNIPQSPSVRSTSSFSNLTRNSIRSTSNSGSQSISASSTRSNSPLRSVSAKSDPFLHPGRIRIRRSDSINNNSRKNDTYTGSITVTIRPKPRSVGTSRDHVGLKSPRYSQPRSNSHHGSNTFVRDPWFITNDKTIVHEEIGEFKFDHVFASHCTNLEVYERTSKPMIDKLLMGFNATIFAYGMTGSGKTFTMSGNEQELGLIPLSVSYLFTNIMEQSMNGDKKFDVIISYLEIYNERIYDLLESGLEESGSRISTPSRLYMSKSNSNGLGVELAIADDSQYGVKVIGLTERRCESSEELLRWIAVGDKSRKIGETDYNARSSRSHAIVLIRLTSTNVKNGTSRSSTLSLCDLAGSERATGQQERRKEGSFINKSLLALGTVISKLSADKMNSVGSNIPSPSASGSSSSSGNATNNGTSPSNHIPYRDSKLTRLLQPALSGDSIVTTICTVDTRNDAAAETMNTLRFASRAKNVALHVSKKSIISNGNNDGDKDRTIELLRRQLEEQRRMISELKNRSNIGEPLTKSSNESTYKDIKATGN

stoichiometry N [3]: 1 Kip2-NMD dimer per Bik1-CC dimer
B4: Kip2 non-motor domain (Kip2-NMD, residues 504–706) (domain or fragment, S. cerevisiae, UniProt P28743 504-706, looked up)
chain: SNGNNDGDKDRTIELLRRQLEEQRRMISELKNRSNIGEPLTKSSNESTYKDIKATGNDGDPNLALMRAENRVLKYKLENCEKLLDKDVVDLQDSEIMEIVEMLPFEVGTLLETKFQGLESQIRQYRKYTQKLEDKIMALEKSGHTAMSLTGCDGTEVIELQKMLERKDKMIEALQSAKRLRDRALKPLINTQQSPHPVVDNDK
notes: Kip2 non-motor domain (coiled coil and C-terminal tail), S. cerevisiae, residues 504–706; Dimer by SEC-MALS (45 kD); PreScission site between His tag and protein; also called NMD-Kip2; source: E. coli BL21 (DE3), purified (IMAC, SEC); not shown: His6, N-terminal, cleaved
stoichiometry N [2]: 2

stoichiometry N [4]: 1 MBP-Kip2-MD-mCherry dimer per tubulin dimer
B6: MBP-Kip2(71-560)-mCherry (domain or fragment, S. cerevisiae, UniProt P28743 71-560, looked up)
chain: KSDPFLHPGRIRIRRSDSINNNSRKNDTYTGSITVTIRPKPRSVGTSRDHVGLKSPRYSQPRSNSHHGSNTFVRDPWFITNDKTIVHEEIGEFKFDHVFASHCTNLEVYERTSKPMIDKLLMGFNATIFAYGMTGSGKTFTMSGNEQELGLIPLSVSYLFTNIMEQSMNGDKKFDVIISYLEIYNERIYDLLESGLEESGSRISTPSRLYMSKSNSNGLGVELKIRDDSQYGVKVIGLTERRCESSEELLRWIAVGDKSRKIGETDYNARSSRSHAIVLIRLTSTNVKNGTSRSSTLSLCDLAGSERATGQQERRKEGSFINKSLLALGTVISKLSADKMNSVGSNIPSPSASGSSSSSGNATNNGTSPSNHIPYRDSKLTRLLQPALSGDSIVTTICTVDTRNDAAAETMNTLRFASRAKNVALHVSKKSIISNGNNDGDKDRTIELLRRQLEEQRRMISELKNRSNIGEPLTKSSNESTYKDIKATGN
notes: Kip2 motor domain with a first helix predicted to form part of the coiled coil, S. cerevisiae, residues 71–560; Mixed monomers and dimers by SEC-MALS (185 kD; monomer calculated 125.8 kD); also called MBP-Kip2-MD-mCherry; MBP-Kip2-MD; not shown: MBP, N-terminal, kept; mCherry, C-terminal, kept
stoichiometry N [5]: 2

stoichiometry N [6]: 1
B8: Kip2 motor domain (Kip2-MD, residues 100–503) (domain or fragment, S. cerevisiae, UniProt P28743 100-503, looked up)
chain: TGSITVTIRPKPRSVGTSRDHVGLKSPRYSQPRSNSHHGSNTFVRDPWFITNDKTIVHEEIGEFKFDHVFASHCTNLEVYERTSKPMIDKLLMGFNATIFAYGMTGSGKTFTMSGNEQELGLIPLSVSYLFTNIMEQSMNGDKKFDVIISYLEIYNERIYDLLESGLEESGSRISTPSRLYMSKSNSNGLGVELKIRDDSQYGVKVIGLTERRCESSEELLRWIAVGDKSRKIGETDYNARSSRSHAIVLIRLTSTNVKNGTSRSSTLSLCDLAGSERATGQQERRKEGSFINKSLLALGTVISKLSADKMNSVGSNIPSPSASGSSSSSGNATNNGTSPSNHIPYRDSKLTRLLQPALSGDSIVTTICTVDTRNDAAAETMNTLRFASRAKNVALHVSKKSII
notes: Kip2 motor domain, S. cerevisiae, residues 100–503; Used in its apo state; The methods tell cleavage of the His tag only for Kip2-NMD and Kip2-NMD-ΔT; also called apo Kip2-MD; source: E. coli BL21 (DE3), purified (IMAC, SEC)
